Results reported in the supplement of paper PMC12636428.

Test system: Saccharomyces cerevisiae
Test: transcriptional activation domain activity (GFP:mCherry ratio, weighted mean of sorted bins, harmonized to initial dataset scale) (arbitrary fluorescence ratio units); higher = stronger transcriptional activation
Conditions: beta-estradiol 1 µM; induction time 4 h
Procedure, shortened: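 For this assay, yeast diploids with a GFP reporter carried barcoded protein tiles at URA3, each fused to an estradiol-inducible synthetic transcription factor. Induction was a 1:5 dilution into SC with 1 uM beta-estradiol for 4 hours at 30 °C, followed by sorting into 8 bins by GFP:mCherry ratio and barcode sequencing. Tiles under 50 reads were dropped, and activation activity was calculated as the read-weighted mean of bin median fluorescence, averaged across barcodes and linearly mapped onto the initial dataset scale.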

Sequence | transcriptional activation domain activity
QYETPAPKDFLDDFVSLTDFFTFFDDPVDLYDVGSFAFQQPHSMNIDFDPAML | 152000
EAYPEPEEEPTMEPIDLSDDALLQVSYRLQKQNLSSSIVLLLTNRCLFISKPY | 49400
LLMYTLFYMISEIFYSVAYDAHYFMFDPISVALVQCPMFACVVISVLYGHIWS | 57800
FTRVDICFRNCYAGGTVVLVYSALAFFLLLMIAMYGNGYHGPFAWMTFTLSTV | 53000
KQGQEVEFKPERGVGDLVLKVTGRKRGYRAEERRSNSLRAQLVISHAVPLAVT | 60200
ACLFTMELILHNIYAVAIRSAGSPVWSSFTPFELSMFGFWNLIIVWMKLLLPW | 54700
MVLLCAYERGLGLDIGVSGFVSFFSFLTLFFFFPIYLFFSLLYFLCVCLLCCA | 49700
GEEGDKPKRGRKRKEAPKDDGEDADDAEAPAAKKAKPASKPASKAAATKPASK | 34200
GGVAAREAKRKGRGRGEEEGRGAVCGGRGARGGARGRGGGGGRTGRAGGARAL | 23500
VFLNGILFLGSILFYQVVLLRLNWYLLHILAYTIAFAYNAFWLYPVYCLSFLL | 33000
MVMMIVCVCVLPCFVYVLWFLCRFFIYLFYYCVHAWPRWHREGGLFSLFFFFF | 30000
RASAAVPRRRDSTDSSDSEGDIRAAMAAARRKQAKVPAPRPVVENRPAPANTP | 36300
RLRAEGEEDAAAGNDQNKSGRKGGGVAMVGDGINDSPALAAASVGIALSTGSE | 29300
MSLLMRVLCFCALGRPDLEDHWKSLQSEKAFEIVRTRVSSILDNIVTTAGVLL | 60400
MPGLCIWYGVFWVVGFFSFFLLVLRVMGFLVCVFVRLVCVCFFRAFDICFFFS | 34500
GKEKKDGEAAAPAAANHAPAEASAPAQTSSRPEGGERGRGRGRGHKGERGGAG | 43200
QVPEQVPEQAPEPEKVAEEIVKEEVKKPEEPKAPTPSPAPVAAPRAAAPPAAE | 29500
TVLLDVALNGNPKELIVFILEHVYSLENDLTVLQQSLLVLVICKVYNETYPKQ | 67400
MLIFYFYFYFYFYLNFFYFFSFVSGWFVLGKDVFVLFLFPFSLSGFSYFVFGY | 46700
RLHCHVVCPLSHSLLTQVYLFLFFFLSNLLITSLSLPVHFFPFILCLCCIAHF | 58000
PDHIHHHSNNMNNEDNDNNNGSNNKVSNDSKLDFVTDDLEYHLANTHPDDTND | 47000

Sequence | transcriptional activation domain activity
MYRCYCGLLMVPWYPCAVVFHVCLCGVRWGCENGVIGVYVLGWWVLWFVVLFG | 32600
IIKSLVGCLFFVLCPIVLVHSTSCYPRILYPLSYLLFLFWVPHLLFACRVTFT | 56400
MDFTLTWVKLHVYFFFLPYPCWKINSLVYPFFFLFFLSFPFSFFFSLFSLFLC | 69100
SSSEEEVEVEVDKKTGVKRKRVKKQKVKKDVHNLVWSVVSQKKVFTDCWLGVL | 91900
VHLLLTVFFHYVPTPDPFFTNLLLCPLDGLLRANSVTLALSLLSRPSINPLLV | 58300
RKRGWSDEDGEGEGAEGGEAQNGKGKGKGRGRRARGKGKGKGKESAEAEKDED | 27200
MKRSAAALVSYPSSDEETSEAQAKSEPIKKKKKLPQLSSSLVVPVPVDNPALH | 41300
GTSGTSVASRPSITPRAFGSSRSSRPSARSGSPSSRTAPSTPAPASSTRRTRP | 31100
HNQPVPKLLHITIYHLSTIPNDNLASFRDLLNHVHVYLLPLVSARPLFTLVTH | 78800
AAAPRAKNAPRGKKQTAAKTAPEPEPEPEAEPAPAPKPRGRQKKTVKASAPEV | 20800
VAAVSRGEKERHRDRDREKKPSRSKPEKSSRRVVEKEEKTSSKGSASDKADKT | 39700
FGSDYTRFYMYMPHPSILPYILGDLFWTFWRGFIDMEMTSKTYLYLFFLLLPP | 72300
SFLSPFCRWVGGSFFVIIWSLFFLSLLFSPPCQPGFISWSFWTAGFLVFFFLF | 46500
RGKQPYRWTIWIYLGTRYSCLLMFITFFILNHAGHALCKPLILMNYVFNIVSW | 41700
MRKLQVRSWSGLHVLSHFQIFDLLALIPGGWCNQILWLQGHHQWYIVILFVFT | 65800
MRCPFHLLHTTSGLVYTFYLLFWVLVDTLMFYFFFPSCMSLGSVGHLLFISCC | 67600
INPFFGFLPFFFFFLPHLLLHYLALFFYYYFWFVFFSVPYSCPLVFYLLVFFL | 55200
YGCNELIFNPLIDWWRKGPITRQLRTFMWSDAPLHYKIGMLSYMFSYYALSGA | 36300
IKIIQLLGTRYLYFMIKELRGALLRGYQMHVLGYTVHAILASIDLNPACLKAC | 77200
GHGSSDGGRPPAKRARKAINCEPCRSSKLKCDRNRPCSSCVLRGTAAQCYPGS | 38800
KAFRLVHGILQRSHPRTLDRLFSSMLWLLHNGLTEVALLLRDYIRSLSIRLTS | 53000

Sequence | transcriptional activation domain activity
VIDGSYTTSLKMILFLLAISGQNLLFFFILISLTFLLFLFSTCLCMILLDALI | 22100
SAFDLADAIEKQSVSKLEKFSTTALSLELNCLVCLIKVLLKMYLSSDPAFEPY | 42200
GSSDGGSHNAPGAPRPMALRALITTKEAGVIIGKNGKNVAEMREQSGAKITVS | 48900
GNDEAGAEDTDEDEIEGEGEEGQAPADGNEEEGAGEGESSRAMKKIGKKKAEK | 16600
LVVVLAVTKVMLLVLLIISYQILKQLLGIYFKCIHFLIYFFMLPYYGTLLSIL | 47500
FFLLRNGFIFEDMARYRFYTCSQLWLWLIFLAVRSEIGLQRVYVFFVFMLFQV | 49800
MGIRYHWLVFFCPFFSFTFASCFVLFVGMLFCFIILDYGCFSFLPLWFFFCPE | 18700
QESIPHQVGFSTPQLTAQQLIENAIESGVVDLETLDLPPFLSLDGLPPASSSA | 116000
FFCSLFVSPVTLFFIFYSYCKRSFAISLLLMITIYWSFLLGLTASILVYRIWL | 57500
IRLMPFYSSPNVDVAEENLRCYENTAVFLLSNFQYLIVALVYCDGEPYRENIS | 41000
TSLVYPIHSSDTGDTLSSGLETPENSNFNSDSGIKEDFEAFRALLPLGKLIYD | 69500
MSLFFLFFFFFSSFFSFFLLLPLCSVMFMPPVLSLYGVTMGFLPPPPFFFFLF | 37900
ACIVFWMGSWVYKYQLMFVFVSKVESGGRVWNVVINRLLFCVVLMQCLMILTI | 73700
PARAHGNRDDERGGGVRGGVPADARATLARRVQPHPLARARARVCAGAAVRGE | 48600
SNHGLIYSKPLAWEWNCIIDSIENSLVGYCMEQIFVVHVSRLLLLQWSITQIF | 56000
LYKSYKHAFHDWIYRLYYYLYHCLVELGLSSAAVDIFRACLPSVKMGNIALTY | 63000
RRDCATSSDARTPARLCCSHGVGTKLDKAETSREVSAEEARALADAHGARFCE | 24300
RCKHSDCQELSPFASVFDLIDHYDHTHAFIPETLVKYSYIHLYKPSVWDLFEY | 157000
FVLDTFLWYIIWNTDIYTRLPKRIYAKILATADMEVKYKPKVLVSQIWNAVLI | 14000
EAEDTAAARLKRAKSERMRLRTRVVQAMWAEASEEERGAAEAEVAREKEAIRA | 30400
REQQQRNDFPEGTHRMKVVAERWKTLSDDQREISFISSLLYAYVHVELRLRLG | 46500

Sequence | transcriptional activation domain activity
MVVVSCLSGAFLFFLFVHVVSGALFTYYSLLSLIFSLYHSILFVCWADLFFFF | 57100
MDGVFGDCFFFLCFIFVFCFITFFFFFGLLLLLCCYGLDGGYVLVFFFLFFFV | 33500
MLSSWSTSLNLVFFSLTWTTIAMTYSPLQLEFFAPLLLRTFLYLLPSALFLLF | 67600
NLLMRPRYPPNQFISKISLRLILTDLPYMIFVFSGIFIMLGLFYPIFYLQLYA | 50400
FYGYFNVLKIYLIKYRSSEVFFFFFDFLMYTENEWFITNLFFLLSFILHLGFF | 60200
LPTKYRVLDGLFQALAVRAGGFYVVTIANLRQGLLYVSAYPVTLTMRNTNVYE | 48900
MGGFFLFFFFFSFVDSFGVVYDMDMRSGGVFFFLPFLSTLFFLLLLGSVLFSC | 71600
MEGRHISVIKQLYGLYWLDVWKISLQLWSEVKGMYHVLQQNLWIITLFPFFAA | 64000
KSNGTEGAGAEGSKGGEGSTGEGSKGEGSSGEGAKGGEGSKGEGAGAEGSKGG | 36300
PPPPPPPPPPPLSLLTTAIPPPPPPPPPLGGGPPPPPPPPPGPGGPPPPPPPP | 30700
FLLTVYHIELLRNKSGDCSFMLRYFMNQGVNNSSLSTCMEHVAEAVVSTFINE | 30600
KIMSFIIGLGLICPLVLVRDKLTILLTLCYEGLLVGFWFIDHAQALRWYCLFI | 68700
LYYTAPFNLQPYISYVGCGLVCLVLFFNGFWIFFPGQFSVANLFTSYFAPVFF | 65000
MTWRGLSLLLSVLLITWCDPAFFPPVYIQFLFIFIFAWLHLIFLFLIQYLGCI | 37900
ILLMELILHTVYCVAISKWGHWEAFSVYEISLIGYMRLSFIWLKLLVIWRFAR | 88100
KADEPAVEENGAKEDDSAKKQKTNGETETEKKGKGRGRPKKADGEKKAPAKKR | 21400
ATIAPPQLELVTDPQLSMDSFLEMIRVFTVPGKCFFDALAADSTDASCTEESL | 95400
VIMCTALGIKSVKFEFANLCLVSIEHIFALFFYPMAVIICPSFLLHIATFFYI | 83900
MIHYPPLLQSPRLVCTLLCSVDVIWLWFNHLFTLFITWRGVLFFLSFFTLLFF | 51600
MRFWFLYLFLLFGIGWVGLALLYYYRIFCLFLCNIRILFLLVCFISTHSIIYS | 46200
